# From the DeepSol protein solubility set
# Test: soluble on expression in E. coli; label from the status in PepcDB or PDB records
row,Sequence,soluble on expression in E. coli
1,MGHQNAAVSENQNHDDGAASSPGFKLVGFSKFVRKNPKSDKFKVKRFHHIEFWCGDATNVARRFSWGLGMRFSAKSDLSTGNMVHASYLLTSGDLRFLFTAPYSPSLSAGEIKPTTTASIPSFDHGSCRSFFSSHGLGVRAVAIEVEDAESAFSISVANGAIPSSPPIVLNEAVTIAEVKLYGDVVLRYVSYKAEDTEKSEFLPGFERVEDASSFPLDYGIRRLDHAVGNVPELGPALTYVAGFTGFHQFAEFTADDVGTAESGLNSAVLASNDEMVLLPINEPVHGTKRKSQIQTYLEHNEGAGLQHLALMSEDIFRTLREMRKRSSIGGFDFMPSPPPTYYQNLKKRVGDVLSDDQIKECEELGILVDRDDQGTLLQIFTKPLGDRPTIFIEIIQRVGCMMKDEEGKAYQSGGCGGFGKGNFSELFKSIEEYEKTLEAKQLVG,soluble
2,KAAPAEPATGPFNVSATSPVTGQNYQMSCTAHDHVMRCSGGNNAIVLLTPNPTGVVEEKTYEYALEGTVVLKNTAEVLEGLKPPNNDNPNNEYILLWFDNPMDVAGKHAGNRDQLSTKNVRYLSLGKKETTQYGPLPDTTGPWRQYVGKRIRLHVNSDNMRYPSDTGMPLGALRLEEAPDIRIEEL,not soluble
3,MGWCVMAVLVDSETRVLVQGITGREGSFHAKAMLEYGTKVVAGVTPGKGGSEVHGVPVYDSVKEALAEHPEINTSIVFVPAPFAPDAVYEAVDAGIRLVVVITEGIPVHDTMRFVNYARQKGATIIGPNCPGAITPGQAKVGIMPGHIFKEGGVAVVSRSGTLTYEISYMLTRQGIGQSTVIGIGGDPIVGLSFTEALKLFQEDPQTEALVLIGEIGGDMEERAAEMIKKGEFTKPVIAYIAGRTAPPEKRMGHAGAIIMMGTGTYEGKVKALREAGVEVAETPFEVPELVRKALRR,soluble
4,MFNNILVVCVGNICRSPTAERLLQRYHPELKVESAGLGALVGKGADPTAISVAAEHQLSLEGHCARQISRRLCRNYDLILTMEKRHIERLCEMAPEMRGKVMLFGHWDNECEIPDPYRKSRETFAAVYTLLERSARQWAQALNAEQV,not soluble
5,MGREFIPLFEDWAATYDQTVQGLDIQYKEAFRGYDHILDAIVRKSGTHVLEFGPGTGNLTAKLLDAGKTVFGIEPSPAMRKLASDKLSGRTEIVDGDFLTFPEPPFQADTIVSSYAFHHLTDEEKRAAIKQYGKYLHLHDKIVFADTVFENAQAYQQAIDKARSQGFYQLANDLETEHYPTLDALKEMFTAEGFAVRFTQQNDFVWIMEAIKRLEHHHHHH,not soluble
6,MTQELGPLARTLSMPYYDDALPAHDQFHAKRVRDIALRLAGDCNGSVDRDVLAASAWLHDIGRPRERAGEIDDHDDWATAEAAQLLAAEGVKPDRIGRIKHCIQAHSIRTSSPEPRTLEAKLLFDADKLDAAGARGLVRLACIVGERSGRTGEKYAVIDDTSATDLGTSNSPDIELLRDWAQERLDTLYTQPGRRLGQTRREFMDEFFTHFAGEIGASGEWLEHHHHHH,not soluble
7,GAMGSGGGGEHQHGEEMMAAVPAPDAEGAAGFDEFPIGEDRDVGPLHVGGVYFQPVEMHPAPGAQPSKEEADCHIEADIHANEAGKDLGYGVGDFVPYLRVVAFLQKHGSEKVQKVMFAPMNAGDGPHYGANVKFEEGLGTYKVRFEIAAPSHDEYSLHIDEQTGVSGRFWSEPLVAEWDDFEWKGPQW,soluble
8,MRKIQVGVTGMTCAACSNSVEAALMNVNGVFKASVALLQNRADVVFDPNLVKEEDIKEEIEDAGFEAEILAEEW,soluble
9,MGSDKIHHHHHHMGLLTNLKDSISRAASTLFSEEDPKRIGIYGPPNAGKTTLANRIARDWTGDAVGPESHVPHETRRARRKENVEIERDGKKVTIDIVDTPGVTTKVDYTEFLEHDMEKDDAVRRSREATEGVAEAMHWLREDVDGVIYVLDSATDPFTQVNTMLIGIIESQDLPVLILANKIDLEESSVQRIRNAYPQHETIPLSALEGDNMDEVYDKIAEYFG,not soluble
10,MGQDHIRYDILAQDALRGVIRKVLGEVAATGRLPGDHHFFITFLTGAPGVRISQHLKSKYAEQMTIVIQHQFWDMKVTETGFEIGLSFSDTPEKLVIPYNAIRGFYDPSVNFELEFDVPLAKEEEMEEAEITAYPVSHEAKPASETPKSGEEKKEGSVVSLDAFRKKQLEHHHHHH,soluble
11,MSLAYGIRLLVWGERACFTRPEMKVERVSYDVITPSAARGILEAIHWKPAICWVVDRIHVLKPIRFESIRRNEVGGKLSAASVGKAMKAGRTDGLIALADEDRQQRAATVLRDVSYVIEAHFELTARADASDSEGKHLDIFNRRARKGQYFHAPCLGVREFPASFELIEPDDVLPAVPADLRGERELGWMLHDIDFANDMTPHFFRAVMRDGVIEVPALRSEGVKAEGHHHHHH,soluble
12,MGSMDQSIAVKSPLTYAEALANTIMNTYTVEELPPANRWHYHQGVFLCGVLRLWEATGEKRYFEYAKAYADLLIDDNGNLLFRRDELDAIQAGLILFPLYEQTKDERYVKAAKRLRSLYGTLNRTSEGGFWHKDGYPYQMWLDGLYMGGPFALKYANLKQETELFDQVVLQESLMRKHTKDAKTGLFYHAWDEAKKMPWANEETGCSPEFWARSIGWYVMSLADMIEELPKKHPNRHVWKNTLQDMIKSICRYQDKETGLWYQIVDKGDRSDNWLESSGSCLYMYAIAKGINKGYLDRAYETTLLKAYQGLIQHKTETSEDGAFLVKDICVGTSAGFYDYYVSRERSTNDLHGAGAFILAMTELEPLFRSAGK,soluble
13,MGHHHHHHGGHMSLDMKLQQVQVLKPQLTQELRQAITLLGYHSAELAEYIDELSLENPLIERKETDTPPLSYHKTNKNRMNAQEAGLQLSNPQKTLQDALKQQSLDMNLTNTEKKIFNYLIHSLDSNGYLEEDIEEAARRLSVSAKEAEAVLAKLQSLEPAGIGARSLQECILLQLQRLPNRNEQAEMLVSAHFDAFAQKKWKTLSVETGIPLHTIQDISDDIAALHPRPGLLFARPEQDVYIEPDIFITVKNGHIAAELNTRSFPEIDLHPQYRTLLSSGSCQDTVSYLSAKYQEWRWLSRALRQRKQTITRIINELITRQKDFFLKGRSAMKPLTLREVADCLSLHESTVSRAIKGKTIQTPYGLFEMKLFFSAKAEASGDGDASNYAVKTHLENLINQEDKTKPLSDQKLVDLLYEQHGIQISRRTVAKYRDQMNIPSSAARKRYKEGGS,soluble
14,MGSDKIHHHHHHMGLFNIFDVAGSGMSAQSLRLNTTASNIANADSVSSSIDKTYRSRHPIFEAEMAKAQSQQQASQGVAVKGIVESDKPLLKEYSPDHPMADGDGFIYKPNVNVMEEMADMISASRSYQMNVQVAEAAKSMLQQTLGMGK,not soluble
15,TVKSGLILQSISNDVYHNLAVEDWIHDHMNLEGKPVLFLWRNSPTVVIGRHQNPWQECNLNLMREEGVKLARRRSGGGTVYHDMGNINLTFFTTKKKYDRMENLKLVVRALKAVHPHLDVQATKRFDLLLDGQFKISGTASKIGRNAAYHHCTLLCGTDGTFLSSLLKSPYQGIRSNATASTPALVKNLMEKDPTLTCEVVINAVATEYATSHQIDNHIHLINPTDETVFPGINSKAIELQTWEWIYGKTPKFSVDTSFTVLHEQSHVEIKVFIDVKNGRIEVCNIEAPDHWLPLEICDQLNSSLIGSKFSPIETTVLTSILHRTYPGDDELHSKWNILCEKIKGIM,soluble
16,MSTSQTKNVSIDTIKEFMYQVLLKVGSDEENARMVRDTLIAADLRGMDTHGIQRFKTVYIDRIKKGMINPTAKPSIIRETSTTCVLDGNNGFGHVNGTIGMKMAIEKAKKYGMGMVVVRNSTHFGIAGYYSLLAAQEGCIGICGTNARSSVAATFGDEPILGTNPLAIGIPSDEAFPYCFDGATSISPTGRFEKYVRMGKTVDKSWASMKGGKPIEDPKELLENYPKGKAYLHPLGGSDEVSGSHKGYCLSEFVEIMSSCLSIANFLNHIEEEKEKSGKFSLGHFFIAINVECFRDLNEFKKNVGDINRTLRNTDKLPGHDRIYTAGEKEYETEQKRRKFGDDLPLVTINEMKELSSFYNVPLPF,soluble
17,MHHHHHHSSGVDLGTENLYFQSMASESETLNPSARIMTFYPTMEEFRNFSRYIAYIESQGAHRAGLAKVVPPKEWKPRASYDDIDDLVIPAPIQQLVTGQSGLFTQYNIQKKAMTVREFRKIANSDKYCTPRYSEFEELERKYWKNLTFNPPIYGADVNGTLYEKHVDEWNIGRLRTILDLVEKESGITIEGVNTPYLYFGMWKTSFAWHTEDMDLYSINYLHFGEPKSWYSVPPEHGKRLERLAKGFFPGSAQSCEAFLRHKMTLISPLMLKKYGIPFDKVTQEAGEFMITFPYGYHAGFNHGFNCAESTNFATRRWIEYGKQAVLCSCRKDMVKISMDVFVRKFQPERYKLWKAGKDNTVIDHTLPTPEAAEFLKESEL,soluble
18,MHPLLRRLDLNLLLVFDALYRHRNVGTAASELAISASAFSHALGRLRQGLDDELFLRQGNRMQPTQRAEHLAAAVAAALRALGEGLEEWRPFVPGQSQRTFVFAATDYTAFALLPPLMNRLQHSAPGVRLRLVNAERKLSVEALASGRIDFALGYDEEHERLPEGIQAHDWFADRYVVVARRDHPRLAGAPTLEGYLAERHAVVTPWNEDSGVIDRLLARSGLRREVAVQLPTVLAALFLAGSTDFLLTAPRHAARALAEAAGLALYPAPFDIPPYVLRLYSHVQHVGRDAHAWMIGQLKGLDISRTG,soluble
19,MEEDQEEPPSSSTSSESPEVVLKAPKAPTRRRKNSKKDRRQDMEVDDGEKESTAQYCKGFYDALRVMQTTNKYEFTGGAVSSPVLPVLQTAAFSPITPASASDMHTIVMSLLGNTPITSGPSIAPLSSPTLLPLVTSGDLDDLSMKILASSAIPGPPIISSSNSPDSSTTAVTTSQITAFQPLLNNFVSSTTASTSRPDKLNLTPPQQSAEIYAFNGVNSDDSDGGLDSRSASRCG,not soluble
20,MIAKTDSDIRHVTPSGGNVFADLGFHKQDAEKFYADSLNEIENTLAIKQQLMEEITLWITQNQMKQAEVATVLHISRPRVSDVVNKKCSKFTIDALVNMLSRIGKPVRVMVGP,not soluble
21,IGIVNDMPLAVEALRRALAFEPQHQIVWVASNGAEAVTQCAADTPDVVLMDLLMPVMDGVEATRRIMAESPCAIVIVTVDIEQNVHRVFEAMGYGALDAVNTPALGIGNPQTAAAPLLRKIQNVGWLIGQRDNRGKVQVVPPKAGGARQRLVAIGASAGGPASLAVLLKQLPASFNAAVVLVQHVDEVFAAGMAEWLASESKLPVRLARDGEPPIPGQILLAGTNNHIRLLRNGSLVYTAEPRSFVYRPSIDVFFESVANYWRGDAVGVLLTGMGRDGAQGLKQMRERGFLTIAQDQASCAVYGMPKAAAAIDAAVQILSLEKIA,not soluble
22,MAIIKSPVFKDISEAEISEMTSAGFLRARKFRKKAIIYHVTDIVHEIGIVASGQVTIEYIDMWGNKAIMSNIAPGQVFAETYALSGEPLMVDAVASETSVVLFLNIRKLMDSQPENVHYKDTILNNLLHISIQKNLTLSNRIFCTSPKTIRDRLLIYLSNESRKAGCEEFSIPFDRQQLADYLNVDRTALSKELGKMRDDGLIEFRKNVFHLLSIC,not soluble
